These results are taken from patent US20240101645A1 (HENRY M JACKSON FOUNDATION FOR THE ADVANCEMENT OF MILITARY …, published 2024).

In test [1] the target is T1, SARS-CoV-2 S on pseudovirions (Wuhan Hu-1 / IL1/2020, last 18 amino acids removed) (SARS-CoV-2, UniProt P0DTC2 14-1273). The experiment in a line: cell-based or functional assay.
For test [2], the target named is T1, SARS-CoV-2 S on pseudovirions (Wuhan …). The experiment in a line: cell-based or functional assay. The source holds these as a separate data set.
The target of test [3] is SARS-CoV-1 spike antigens (bead panel) (SARS-CoV-1, UniProt P59594 14-1195). Nature of the test: multiplex bead assay.
Test [4] concerns the target T2, SARS-CoV-2 NTD (1-290) (SARS-CoV-2, UniProt P0DTC2 14-290).
T2 construct: range 1-290
Nature of the test: BLI, 1:1 model. Background: In BLI a coated tip is dipped into the sample, and binding shifts an interference pattern.

In test [5] the target is T3, MERS-CoV spike antigens (bead panel) (MERS-CoV, UniProt K9N5Q8 18-1296).
T3 sequence: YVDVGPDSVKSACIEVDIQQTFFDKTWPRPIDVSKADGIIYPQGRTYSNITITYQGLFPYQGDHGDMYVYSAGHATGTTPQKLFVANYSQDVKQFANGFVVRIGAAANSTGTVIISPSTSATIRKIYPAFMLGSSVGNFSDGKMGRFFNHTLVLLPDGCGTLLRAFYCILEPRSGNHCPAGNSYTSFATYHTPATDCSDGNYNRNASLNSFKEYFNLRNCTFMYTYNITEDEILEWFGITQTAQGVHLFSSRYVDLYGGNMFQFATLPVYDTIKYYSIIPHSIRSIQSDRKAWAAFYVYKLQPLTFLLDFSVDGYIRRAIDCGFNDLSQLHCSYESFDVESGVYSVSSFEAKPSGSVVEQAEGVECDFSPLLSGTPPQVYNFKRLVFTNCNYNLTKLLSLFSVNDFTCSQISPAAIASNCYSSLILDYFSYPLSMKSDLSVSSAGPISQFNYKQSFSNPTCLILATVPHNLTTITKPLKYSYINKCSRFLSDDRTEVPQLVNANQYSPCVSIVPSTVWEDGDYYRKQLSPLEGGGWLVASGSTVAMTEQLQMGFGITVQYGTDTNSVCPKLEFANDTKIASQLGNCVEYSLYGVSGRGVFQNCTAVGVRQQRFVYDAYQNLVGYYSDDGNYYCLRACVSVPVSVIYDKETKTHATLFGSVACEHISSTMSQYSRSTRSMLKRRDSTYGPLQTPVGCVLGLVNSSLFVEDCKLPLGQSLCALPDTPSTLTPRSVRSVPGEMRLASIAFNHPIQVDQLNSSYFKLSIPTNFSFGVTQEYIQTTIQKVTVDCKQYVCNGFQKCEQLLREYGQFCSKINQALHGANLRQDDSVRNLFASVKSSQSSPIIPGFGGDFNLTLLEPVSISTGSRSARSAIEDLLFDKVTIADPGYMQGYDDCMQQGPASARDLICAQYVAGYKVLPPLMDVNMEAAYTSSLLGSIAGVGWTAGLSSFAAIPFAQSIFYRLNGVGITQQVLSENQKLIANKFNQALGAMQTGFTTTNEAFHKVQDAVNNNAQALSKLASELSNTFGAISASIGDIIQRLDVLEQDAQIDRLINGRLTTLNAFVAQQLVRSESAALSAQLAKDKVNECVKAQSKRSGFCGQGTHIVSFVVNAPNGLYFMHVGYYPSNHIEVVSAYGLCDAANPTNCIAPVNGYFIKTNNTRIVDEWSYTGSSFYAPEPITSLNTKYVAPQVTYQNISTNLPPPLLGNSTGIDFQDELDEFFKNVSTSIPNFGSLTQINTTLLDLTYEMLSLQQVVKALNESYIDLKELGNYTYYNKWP
The experiment in a line: multiplex bead assay.

Test [6] has as its target T2, SARS-CoV-2 NTD (1-290). The experiment in a line: multiplex bead assay.

B1: COV_2123 (antibody, V domains shown)
VH: EVQLVESGGGVVQPGRSLRLSCAASGFTFSSYAMHWVRQAPGKGLEWVAVLSYDGSNKYNADSVKGRFTISRDNSKNTLYLQMNSLRVEDTAMYYCARDGVSVTMVRGVIGPLCDYWGQGTLVTVSS
VL: not shown
notes: human IgG1
Turning to B1, the “Mean IC80, pSV neutralization” value in test [1] is 0.03 µg/ml. Moreover, the “IC50, pseudotyped neutralization assay” value in test [2] is 4 ng/mL.

B2: COV_2039 (antibody, V domains shown)
VH: QVQLVQSGAEVKKPGASVKVSCKVSGYMLIELSMHWVRQAPGKGLEWMGGFDPEDAETIYAQEFQGRVTMTEDTSTDTAYMELSSLRSEDTAVYYCTTGPAVTNRPADYWGPGTLVTVSS
VL: QSVLTQPPSVSGAPGQRVTISCTGSSSNIGASYDVHWYQQLPGTAPKLLIYANSNRPSGVPDRFSGSKSGTSASLAITGLQAEDEADYYCQSYDSSLSYSVVFGGGTKLTVL
notes: human IgG1
The term Kd denotes the equilibrium constant for the complex coming apart. A higher Kd goes with a looser complex. Turning to B2, in test [1], the “Mean IC50, pSV neutralization” value worked out at 0.01 µg/ml and the “Mean IC80, pSV neutralization” value was 1.8 µg/ml. Moreover, in test [3], the binding result is listed as “no binding”. Moreover, in test [2], the “IC50, pseudotyped neutralization assay” value worked out at 6 ng/mL. Also, the Kd in the test with SARS-CoV-2 NTD (1-290) [4] was less than 1 pM.

B3: COV_2004 (antibody, V domains shown)
VH: QVQLVQSGAEVKKPGASVKVSCKASGYTFTGYYMHWVRQAPGQGLEWMGRINPSSGGTNYAQKFQGRVTMTRDTSISTAYMELSSLRSDDTAVYYCATDGDDGENWFDPWGQGTLVIVSS
VL: DIQMTQSPSSLSASVGDRVTITCRASQGISSWLAWYQQKPEKAPKSLIYAASSLQSGVPSRFSGSGSGTDFTLTISSLQPEDFATYYCQQYNSYPYTFGQGTKLEIK
notes: human IgG1
Consider B3, for which the “Mean IC50, pSV neutralization” value in test [1] came to 0.04 µg/ml. Also, in test [1], the “Mean IC80, pSV neutralization” value was 3.64 µg/ml. Also, the binding result in test [3] and in test [5] was “no binding” throughout. In the test with SARS-CoV-2 NTD (1-290) [4], this molecule showed a dissociation constant (Kd) of less than 1 pM.

B4: COV_2054 (antibody, V domains shown)
VH: EVQLVESGGGVLQPGRSLRLSCAASGFTFNNYALHWVRQAPGKGLEWVAVISYDGSSKYYADSVRGRLTISRDNSRNTLYLQMNSLRPEDTAIYYCARDGDGLWLGESFYFDDWGQGTLVTVSS
VL: DIQMTQSPSTLSASVGDRVIITCRASQSISSWLAWYQQKPGKAPKLLIYEASTLQSGVPSRFSGSGSGTEFTLTISSLQPDDSATYYCQQYNSYPVHFSQGTKLEIK
notes: human IgG1
For the molecule B4, in test [1], the “Mean IC50, pSV neutralization” value is no less than 25 µg/ml and the “Mean IC80, pSV neutralization” value is no less than 25 µg/ml. The binding result in test [3] was “no binding”. Moreover, the dissociation constant (Kd) with SARS-CoV-2 NTD (1-290) [4] was less than 1 pM.

B5: COV_2137 (antibody, V domains shown)
VH: EVQLVESGGGLVKPGGSLRLSCAASGFTFSSYTMNWVRQAPGKGLEWVSSISSGSSFIYYADSLRGRFTISRDNAKNSLYLQMNSLRAEDTAVYYCARAPEPQSVIYAYWYFDLWGRGTLVTVSS
VL: QSALTQPASVSGSPGQSITFSCTGTSSDVGSYNLVSWYQQYPGKAPKLMIYEVNKRPSGVSNRFSGSKSGNTASLTISGLQAEDEADYYCCSYAGSSTFYVFGTGTKVTVLG
notes: human IgG1
Take B5: the binding result in test [3] is recorded as “no binding”; in test [5] it was “no binding”; with SARS-CoV-2 NTD (1-290) [6], “binds”.

B6: COV_2103 (antibody, V domains shown)
VH: EVQLVESGGGVVQPGRSLRLSCGASGFTFSSYGIHWVRQAPGKGLDWVAVIWHDGSQKYYGDSVKGRFTISRDNSKNTLYLQMNRLRAEDTAVYYCARDSGDDYDSSGYPIGNAFDLWGQGTMVTVSS
VL: DIQMTQSPSTLSASVGDRVTITCRASQFINSWLAWYQQKPGKAPKLLIYKASSLETGVPSRFSGSGSGTEFTLTISSLQPDDFATYYCQQYNTYSFTFGPGTKVDIK
notes: human IgG1
With B6, in test [1], the “Mean IC50, pSV neutralization” value is no less than 25 µg/ml and the “Mean IC80, pSV neutralization” value is no less than 25 µg/ml. Further, in test [3], the binding result is “no binding”. The molecule further showed a dissociation constant (Kd) in the test with SARS-CoV-2 NTD (1-290) [4] of less than 1 pM.

B7: COV_2025 (antibody, V domains shown)
VH: QVHLVQSGAEVKKPGASVKVSCKVSGYTLVELSVHWVRQAPAKGLEWIGGFDPEDGETIYAQKFQGRVTMTEDTSTDTAYMELTNLRSEDTAVYYCVTSQPFVSPNWFDPWGQGTLVTVSS
VL: QSALTQPASVSGSPGQSITISCTGTSRDVGAYNYVSWYQQHPGKAPKLMIYEVTTRPSGVSNRFSGSKSGNTASLTISGLQAEDEADYYCSSYTGSRTLVFGTGTKVTVL
notes: human IgG1
On to B7, for which, in test [1], the “Mean IC50, pSV neutralization” value was 0.02 µg/ml and the “Mean IC80, pSV neutralization” value stood at 0.49 µg/ml. Further, the binding result in test [3] was “no binding”. For the same molecule, in test [2], the “IC50, pseudotyped neutralization assay” value is 9 ng/mL. The dissociation constant Kd with SARS-CoV-2 NTD (1-290) [4] is less than 1 pM.
